Substitutions are numbered along the chain they refer to. Where two headings read alike, the source gives them in different places. Blank lines part the entries; values can stand above or below the binder they belong to.
Legend:
Experiment in all cases: flow cytometry
[1] = target: T1, human OX40 (human, UniProt P43489 29-277)
T1 chain: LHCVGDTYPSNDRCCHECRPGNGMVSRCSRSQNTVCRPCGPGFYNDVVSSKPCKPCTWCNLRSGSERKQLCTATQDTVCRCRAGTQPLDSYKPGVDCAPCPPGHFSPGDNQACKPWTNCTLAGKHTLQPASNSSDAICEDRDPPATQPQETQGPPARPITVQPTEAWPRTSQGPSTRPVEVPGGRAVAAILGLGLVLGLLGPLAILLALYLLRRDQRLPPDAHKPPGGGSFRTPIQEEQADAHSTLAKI

[2] = target: T1, human OX40
[3] = target: T2, cynomolgus monkey OX40 (cynomolgus monkey)
T2 chain: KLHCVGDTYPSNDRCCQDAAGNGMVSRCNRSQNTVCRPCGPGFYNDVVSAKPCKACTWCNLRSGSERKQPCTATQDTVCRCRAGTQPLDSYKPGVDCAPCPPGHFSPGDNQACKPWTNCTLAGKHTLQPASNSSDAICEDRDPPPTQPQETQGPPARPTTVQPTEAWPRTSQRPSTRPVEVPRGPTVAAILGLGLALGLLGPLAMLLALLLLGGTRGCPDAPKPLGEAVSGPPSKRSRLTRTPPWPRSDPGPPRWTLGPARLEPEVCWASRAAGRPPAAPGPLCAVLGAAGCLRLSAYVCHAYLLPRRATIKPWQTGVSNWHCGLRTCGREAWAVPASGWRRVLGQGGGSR

[4] = target: T1, human OX40

B2: mono-mut23-12H3 (Fc fusion)
chain: IWELKKDVYVVELDWYPDAPGEMVVLTCDTPEEDGITWTLDQSSEVLGSGKTLTIQVKEFGDAGQYTCHKGGEVLSHSLLLLHKKEDGIWSTDILKDQKEPKNKTFLRCEAKNYSGRFTCWWLTTISTDLTFSVKSSRGSSDPQGVTCGAATLSAERVRGDNKEYEYSVECQEDSACPAAEESLPIEVMVDAVHKLKYENYTSSFFIRDIIKPDPPKNLQLKPLKNSRQVEVSWEYPDTWSTPHSYFSLTFSVQVQGKSKREKKDRVFTDKTSATVICRKNASISVRAQDRYYSSSWSEWASVPCSGGGGSGGGGSGGGGSGGGGSGGGGSRNLPVATPDPGMFPCLHHSQNLLRAVSNMLQKARQTLEFSPCTSEEIDHEDITKDKTSTVEACLPLELTKNESCLNSRETSFITNGSCLASRKTSFMMALCLSSIYEDLKMYQVEFKTMNAKLLMDPKRQIFLDQNMLAVIDELMQALNFNSETVPQKSSLEEPDFYKTAIKLCILLHAFRIRAVTIDRVMSYLNASGGGGSGGGGSEPKSSDKTHTCPPCPAPEFEGGPSVFLFPPKPKDTLMISRTPEVTCVVVDVSHEDPEVKFNWYVDGVEVHNAKTKPREEQYNSTYRVVSVLTVLHQDWLNGKEYKCKVSNKALPASIEKTISKAKGQPREPQVCTLPPSRDELTKNQVSLSCAVKGFYPSDIAVEWESNGQPENNYKTTPPVLDSDGSFFLVSKLTVDKSRWQQGNVFSCSVMHEALHNHYTQKSLSLSPG
heavy: QVQLVQSGAEVKKPGSSVKVSCKASGYTFKDYTMHWVRQAPGQGLEWIGGIYPNNGGSTYNQNFKDRVTLTADKSTSTAYMELSSLRSEDTAVYYCARMGYHGPHLDFDVWGQGTTVTVSSASTKGPSVFPLAPSSKSTSGGTAALGCLVKDYFPEPVTVSWNSGALTSGVHTFPAVLQSSGLYSLSSVVTVPSSSLGTQTYICNVNHKPSNTKVDKKVEPKSCDKTHTCPPCPAPEFEGGPSVFLFPPKPKDTLMISRTPEVTCVVVDVSHEDPEVKFNWYVDGVEVHNAKTKPREEQYNSTYRVVSVLTVLHQDWLNGKEYKCKVSNKALPASIEKTISKAKGQPREPQVYTLPPCRDELTKNQVSLWCLVKGFYPSDIAVEWESNGQPENNYKTTPPVLDSDGSFFLYSKLTVDKSRWQQGNVFSCSVMHEALHNHYTQKSLSLSPG
light: DIQMTQSPSSLSASVGDRVTITCKASQDVGAAVAWYQQKPGKAPKLLIYWASTRHTGVPSRFSGSGSGTDFTLTISSLQPEDFATYYCQQYINYPLTFGGGTKVEIKRTVAAPSVFIFPPSDEQLKSGTASVVCLLNNFYPREAKVQWKVDNALQSGNSQESVTEQDSKDSTYSLSSTLTLSKADYEKHKVYACEVTHQGLSSPVTKSFNRGEC
EC50 [2]: 15.6 nM
EC50 [3]: 19.2 nM

B4: mono-mut23-12H3_V3 (Fc fusion)
chain: B2 chain
heavy: B2 heavy with N55Q
light: B2 light
EC50 [4]: 839 nM

Next, values leading:

EC50 [1]: 92.6 nM
EC50 [2]: 59.2 nM
EC50 [3]: 111 nM
B1: mono-mut23-20E5 (Fc fusion)
chain: B2 chain
heavy: QVQLVQSGAEVKKPGASVKVSCKASGYTFTSYVMHWVRQAPGQRLEWIGYINPYNDGTKYNEKFKGRATLTSDKSASTAYMELSSLRSEDTAVYYCANYYGSSLSMDYWGQGTLVTVSSASTKGPSVFPLAPSSKSTSGGTAALGCLVKDYFPEPVTVSWNSGALTSGVHTFPAVLQSSGLYSLSSVVTVPSSSLGTQTYICNVNHKPSNTKVDKKVEPKSCDKTHTCPPCPAPEFEGGPSVFLFPPKPKDTLMISRTPEVTCVVVDVSHEDPEVKFNWYVDGVEVHNAKTKPREEQYNSTYRVVSVLTVLHQDWLNGKEYKCKVSNKALPASIEKTISKAKGQPREPQVYTLPPCRDELTKNQVSLWCLVKGFYPSDIAVEWESNGQPENNYKTTPPVLDSDGSFFLYSKLTVDKSRWQQGNVFSCSVMHEALHNHYTQKSLSLSPG
light: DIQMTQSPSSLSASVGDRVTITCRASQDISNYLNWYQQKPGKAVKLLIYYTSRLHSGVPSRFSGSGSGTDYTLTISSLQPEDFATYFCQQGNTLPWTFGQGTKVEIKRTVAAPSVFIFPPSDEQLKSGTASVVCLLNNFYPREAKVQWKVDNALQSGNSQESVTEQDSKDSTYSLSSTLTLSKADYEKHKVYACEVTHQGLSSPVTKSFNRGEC

EC50 [4]: 1910 nM
B3: mono-mut23-12H3_V8 (Fc fusion)
chain: B2 chain
heavy: B2 heavy with N55Q, M99I
light: B2 light
